Measurements as given in patent US7056679 (ANTYRA, dated 2006).

T1: DGI-2 polypeptide (UniProt Q15004 1-111, limits assumed)
T1 construct: Soluble recombinant protein coated at 500 ng/well; vector tag of pIVEX2.3-MCS not described for this construct; also called KIAA0101
T1 sequence (looked up): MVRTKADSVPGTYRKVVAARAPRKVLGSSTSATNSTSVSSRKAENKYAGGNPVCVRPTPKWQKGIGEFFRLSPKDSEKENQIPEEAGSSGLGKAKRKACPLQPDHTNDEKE

T2: DGI-2 polypeptide (UniProt Q15004 1-111, limits assumed)
T2 construct: Vector-derived residues or tag of pIVEX2.3 are not described for this construct; also called KIAA0101
T2 sequence (looked up): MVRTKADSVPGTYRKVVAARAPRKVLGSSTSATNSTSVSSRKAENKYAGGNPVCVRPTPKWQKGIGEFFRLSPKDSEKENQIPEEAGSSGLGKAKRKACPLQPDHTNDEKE


Tests used:
[1] = target: T1, DGI-2 polypeptide; experiment: phage ELISA
How it was run: (§1)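 Phage from individual clones were bound for 2 h at RT to wells coated with 500 ng DGI-2, LDH (non-specific), anti-E-tag antibody (positive control) or milk (negative control). Bound phage were detected with HRP-anti-M13 and ABTS at A405; positive clones gave ≥2-fold signal over background.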

[2] = target: T3, antibody raised against ETAG; experiment: phage ELISA
T3 construct: Coated at 500 ng/well; also called E-tag antibody
How it was run: as §1

[3] = target: T4, lactate dehydrogenase (LDH); experiment: phage ELISA
T4 construct: Coated at 500 ng/well as non-specific target; also called LDH polypeptide
How it was run: as §1

[4] = target: T2, DGI-2 polypeptide; experiment: phage ELISA, 405 nm; DGI-2 coated
Experimental: (§2) For analysis of individual target binders, colonies were picked and phage prepared as described above using helper phage, M13KO7. Ninety-six-well microtiter plates were coated with 500 ng/well of specific target protein, 500 ng/well lactate dehydrogenase (LDH) irrelevant or non-specific target, 500 ng/well of positive control antibody raised against ETAG, and negative control of non-fat milk powder-PBS 2% at 4° C. overnight. Plates were then blocked with 350 microliters/well PBS containing 2% non-fat milk for 1 hr at room temperature. One hundred microliters per well of phage from isolated clones were added and plates were incubated at room temperature for 2 hr after centrifuging samples for 20 minutes at 3500 rpm at 4° C. The phage solution was then removed, and the wells were washed three times with PBS at room temperature. Antibody raised against M13 conjugated to horseradish peroxidase (Pharmacia) was diluted 1:3000 in PBS-Tween and added to each well (100 µl/well). Incubation was for 1 hr at room temperature, followed by washing with PBS-(0.5%) Tween 3 times as described. Color was developed by addition of ABTS solution (100 µl/well; Boehringer, Indianapolis, Ind.). Plates were analyzed at 405 nm. A clone was considered "positive" if the $A405$ of the well was $\geq$2-fold over background.

[5] = target: T2, DGI-2 polypeptide; experiment: phage ELISA, 405 nm; DGI-2 signal over LDH signal
Experimental: as §2

[6] = target: T5, antibody raised against ETAG; experiment: phage ELISA, 405 nm; anti-E-tag antibody coated
T5 construct: read-out of display; also called E-tag antibody; E tag antibody
Experimental: as §2

| Binder | DGI-2 (OD) [1] [OD] | DGI-2/LDH [1] [ratio] | ETAG (OD) [2] [OD] | LDH (OD) [3] [OD] | DGI-2 (OD) [4] [OD] | DGI-2/LDH (OD) [5] [ratio] | ETAG (OD) [6] [OD] |
| --- | --- | --- | --- | --- | --- | --- | --- |
| SRPGWCSRGTAWGFPGCSSSAAAGAPVPYPDPLEPRP [DGI-2-20R-3-C4] | 4.5 | 4.2 | 19.1 | 1.1 | – | – | – |
| DGI-2-40F-3-D12 (not shown: phage gene III coat protein (pCANTAB5E)) peptide: QGSAHVVRPPGVYDVPWKVGMFFHPQNWPNSWGRAYFRSGAAAGAPVPYPDPLEPRP | – | – | – | – | 2.3 | 2.5 | 7.3 |
| GNKCFPPHDLFWDPCDQLQSAAAGAPVPYPDPLEPRP (not shown: phage gene III coat protein (pCANTAB5E)) [DGI-2-20R-4-F6] | – | – | – | – | 2.3 | 2.3 | 13.2 |
| LTWGPQFGSLQVYSRHRGLPAAAGAPVPYPDPLEPRP (not shown: phage gene III coat protein (pCANTAB5E)) [DGI-2-20R-4-E4] | – | – | – | – | 1.6 | 1.3 | 18.1 |
| DGI-2-40F-3-B116 (not shown: phage gene III coat protein (pCANTAB5E)) peptide: GVVRAQQGLRYELQGDRYRLRRTQWLTVTYCSPSWAFAGCAAAGAPVPYPDPLEPRP | – | – | – | – | 1.7 | 2 | 6.5 |
| RWSLPAYLCRFVSQASCNSRAAAGAPVPYPDPLEPRP (not shown: phage gene III coat protein (pCANTAB5E)) [DGI-2-20R-3-C12] | – | – | – | – | 1.6 | 1.6 | 14.6 |
| MGSLGPFGNINSLASGIGSVRNRPLLPLHGSPAAAGAPVPYPDPLEPRP (not shown: phage gene III coat protein (pCANTAB5E)) [DGI-2-40F-3-D72] | – | – | – | – | 3.1 | 2.8 | 14 |
| RWSICRGLQYSIPGCAVEDLSDVMAAAAGAPVPYPDPLEPRP (not shown: phage gene III coat protein (pCANTAB5E)) [DGI-2-20C-4-H316] | – | – | – | – | 3.8 | 3.9 | 7.2 |
| LTPYSLARSWLSGRPSTGATAAAGAPVPYPDPLEPRP (not shown: phage gene III coat protein (pCANTAB5E)) [DGI-2-20F-3-C12] | – | – | – | – | 3.2 | 3.1 | 15.1 |
| DGI-2-40F-4-F12 (not shown: phage gene III coat protein (pCANTAB5E)) peptide: GLYRRAGDASVGFSRWGRFDCQVYFSVECLLGSSWGGYSAAAGAPVPYPDPLEPRP | – | – | – | – | 2.2 | 2.5 | 8.7 |
| DGI-2-40F-3-C6 (not shown: phage gene III coat protein (pCANTAB5E)) peptide: QMFSKGNWLAHPEGGVALGLSRESQLFRSCREFGYCMGPMAAAGAPVPYPDPLEPRP | – | – | – | – | 2.3 | 2.8 | 10.1 |
| LHFGSVMGWRPPGSLWSRPFGQVHPRSWSGSAAAGAPVPYPDPLEPRP (not shown: phage gene III coat protein (pCANTAB5E)) [DGI-2-40F-3-D11] | – | – | – | – | 3.8 | 2.9 | 10.5 |
| MSSTAWTDRILQRGIGLGPVAAAGAPVPYPDPLEPRP [DGI-2-20R-4-F1212] | 4 | 3.3 | 9.8 | 1.2 | – | – | – |
| DGI-2-40F-3-B11 (not shown: phage gene III coat protein (pCANTAB5E)) peptide: LAPMFLQNQVRTWAASRRPLPAGPSNARCETGSLSPWVPCAAAGAPVPYPDPLEPRP | – | – | – | – | 1.8 | 2 | 7.9 |
| DGI-2-40F-3-D6 (not shown: phage gene III coat protein (pCANTAB5E)) peptide: GLEPVPFQTDKRIAMGWTREWLVNGYGAAHRRDARMQSGHAAAGAPVPYPDPLEPRP | – | – | – | – | 2.5 | 2.6 | 11.4 |
| GLRACDTYLGFCVGARRIDDAAAGAPVPYPDPLEPRP (not shown: phage gene III coat protein (pCANTAB5E)) [DGI-2-20F-3-B102] | – | – | – | – | 2.4 | 2.5 | 18 |
| SWRLWVSGELQGDRRKGLRGAAAGAPVPYPDPLEPRP (not shown: phage gene III coat protein (pCANTAB5E)) [DGI-2-20R-3-B7] | – | – | – | – | 3.1 | 3 | 11.7 |
| TANGHRYGGCGLWCKWMSGMAAAGAPVPYPDPLEPRP (not shown: phage gene III coat protein (pCANTAB5E)) [DGI-2-20R-4-E2] | – | – | – | – | 2.7 | 2.5 | 18.2 |

| Binder | DGI-2 (OD) [1] [OD] | DGI-2/LDH [1] [ratio] | ETAG (OD) [2] [OD] | LDH (OD) [3] [OD] | DGI-2 (OD) [4] [OD] | DGI-2/LDH (OD) [5] [ratio] | ETAG (OD) [6] [OD] |
| --- | --- | --- | --- | --- | --- | --- | --- |
| MSTLQGPGHLFQMLRRASLGAAAGAPVPYPDPLEPRP (not shown: phage gene III coat protein (pCANTAB5E)) [DGI-2-20R-4-H12] | – | – | – | – | 3.7 | 2.8 | 10.9 |
| PAMGHCMQVLGPVLEGRSRDQVGRAAAGAPVPYPDPLEPRP (not shown: phage gene III coat protein (pCANTAB5E)) [DGI-2-20R-4-G6] | – | – | – | – | 1.6 | 1.4 | 11.5 |
| LQIVRPAGWKMPGQVGYYIGAAAGAPVPYPDPLEPRP (not shown: phage gene III coat protein (pCANTAB5E)) [DGI-2-20R-3-A9] | – | – | – | – | 3.4 | 3.4 | 14.3 |
| DGI-2-40F-3-D7 (not shown: phage gene III coat protein (pCANTAB5E)) peptide: ALRSLGSGGFGWQAGRASPQGMTHFPYFGWSGMPTARVRPAAAGAPVPYPDPLEPRP | – | – | – | – | 2.6 | 2.6 | 10.3 |
| TPDRCLIYSSIQCLLEYSARRGSADAAAGAPVPYPDPLEPRP (not shown: phage gene III coat protein (pCANTAB5E)) [DGI-2-20C-3-C65] | – | – | – | – | 1.8 | 1.8 | 7.4 |
| GSVLERGCLEFSGFCFSLGHAAAGAPVPYPDPLEPRP (not shown: phage gene III coat protein (pCANTAB5E)) [DGI-2-20F-3-C1] | – | – | – | – | 3.4 | 3.4 | 14 |
| WAGSTDLWQLWSLWVKPELRAAAGAPVPYPDPLEPRP (not shown: phage gene III coat protein (pCANTAB5E)) [DGI-2-20F-3-B7] | – | – | – | – | 1.6 | 1.6 | 16.4 |
| RFWSVSYQGGRVMCREWGYCLPIAAAGAPVPYPDPLEPRP (not shown: phage gene III coat protein (pCANTAB5E)) [DGI-2-40F-3-C92] | – | – | – | – | 2.1 | 2.6 | 9.8 |
| SLSLYWDAQVGCEVFWGYCVAAAGAPVPYPDPLEPRP (not shown: phage gene III coat protein (pCANTAB5E)) [DGI-2-20R-3-C10] | – | – | – | – | 2.2 | 2.1 | 14.7 |
| TSCQVMFLAGQHLLSRVPRLAAAGAPVPYPDPLEPRP (not shown: phage gene III coat protein (pCANTAB5E)) [DGL-2-20R-3-B6] | – | – | – | – | 2.8 | 2.7 | 11.7 |
| LSLLSVVVRSMGASAPQRQVAAAGAPVPYPDPLEPRP (not shown: phage gene III coat protein (pCANTAB5E)) [DGI-2-20F-3-A7] | – | – | – | – | 2.1 | 2.4 | 7 |
| RNWLDKDCVWMGDCGARAGEAAAGAPVPYPDPLEPRP (not shown: phage gene III coat protein (pCANTAB5E)) [DGI-2-20F-4-E3] | – | – | – | – | 3.8 | 4.1 | 16.9 |
| DGI-2-40F-3-B122 (not shown: phage gene III coat protein (pCANTAB5E)) peptide: HSGNRQSGSRRTHLLNIFCSSDTFVFPGWSAYLSRVCPGDAAAGAPVPYPDPLEPRP | – | – | – | – | 1.7 | 2.2 | 11 |
| ACSVGTALVFPQRWWYLGRSAAAGAPVPYPDPLEPRP (not shown: phage gene III coat protein (pCANTAB5E)) [DGL-2-20R-3-D6] | – | – | – | – | 2.2 | 2.1 | 12.9 |
| DAGIGWVGSMWFPPGCIGACAAAGAPVPYPDPLEPRP (not shown: phage gene III coat protein (pCANTAB5E)) [DGI-2-20R-4-E82] | – | – | – | – | 3.9 | 3.7 | 19.6 |
| DGI-2-40F-4-F6 (not shown: phage gene III coat protein (pCANTAB5E)) peptide: SYRNFAMQSSLQVRRGSVVEDGTCWWEGVRCYSGAAAGAPVPYPDPLEPRP | – | – | – | – | 3.2 | 3.2 | 13.5 |
| LSHPMSPLRAASQMALTQGVAAAGAPVPYPDPLEPRP (not shown: phage gene III coat protein (pCANTAB5E)) [DGI-2-20R-4-H7] | – | – | – | – | 3.1 | 2.6 | 14.1 |
